Test system: Escherichia coli TOP10
Experiment: shrunken log2 fold change of peptide-encoding DNA abundance (4.5 h post-induction vs induction); higher = less antimicrobial activity (less host growth inhibition)
Details: time post-induction: 4.5 h; library: site-saturation at positions 5, 18, 19, 20
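Further: peptides expressed intracellularly from a pBAD plasmid library in pooled LB shake-flask culture, induced with 0.3% L-arabinose, DNA abundance read by NGS, three biological replicates, DESeq2 with apeglm shrinkage.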

| Sequence | shrunken log2 fold change |
| --- | --- |
| RRIRPRPPRLPRPRPRPGPYPRP | -0.0184 |
| RRIRCRPPRLPRPRPRPRCEPRP | 0.0872 |
| RRIRNRPPRLPRPRPRPNGLPRP | 0.00468 |
| RRIRRRPPRLPRPRPRPPWQPRP | 2.01 |
| RRIRQRPPRLPRPRPRPAYLPRP | 0.0774 |
| RRIRLRPPRLPRPRPRPPTAPRP | 0.228 |
| RRIRFRPPRLPRPRPRPNVTPRP | -0.724 |
| RRIRCRPPRLPRPRPRPPFKPRP | 0.313 |
| RRIRGRPPRLPRPRPRPRNIPRP | 0.0648 |
| RRIRYRPPRLPRPRPRPKLRPRP | -0.111 |
| RRIRFRPPRLPRPRPRPWVNPRP | -0.753 |
| RRIRIRPPRLPRPRPRPALIPRP | -0.0428 |
| RRIRVRPPRLPRPRPRPIDAPRP | -0.206 |
| RRIRDRPPRLPRPRPRPIYQPRP | -0.431 |
| RRIRFRPPRLPRPRPRPKKRPRP | 0.3 |
| RRIRDRPPRLPRPRPRPSDKPRP | 0.0657 |
| RRIRTRPPRLPRPRPRPDLGPRP | -0.117 |
| RRIRQRPPRLPRPRPRPHWPPRP | -0.0715 |
| RRIRCRPPRLPRPRPRPKYFPRP | -0.501 |
| RRIRTRPPRLPRPRPRPYHLPRP | -0.805 |
| RRIRARPPRLPRPRPRPAQQPRP | 0.156 |
| RRIRARPPRLPRPRPRPPCVPRP | 0.342 |
| RRIRQRPPRLPRPRPRPDHPPRP | -0.0816 |
| RRIRLRPPRLPRPRPRPRKMPRP | 0.281 |
| RRIRARPPRLPRPRPRPFDQPRP | 0.249 |

| Sequence | shrunken log2 fold change |
| --- | --- |
| RRIRRRPPRLPRPRPRPNPNPRP | 0.369 |
| RRIRARPPRLPRPRPRPIIPPRP | -0.256 |
| RRIRLRPPRLPRPRPRPWMIPRP | -0.0928 |
| RRIRSRPPRLPRPRPRPPQCPRP | 0.115 |
| RRIRKRPPRLPRPRPRPTYWPRP | 0.141 |
| RRIRWRPPRLPRPRPRPTILPRP | 0.0395 |
| RRIRIRPPRLPRPRPRPAVLPRP | 0.0102 |
| RRIRRRPPRLPRPRPRPANYPRP | -0.049 |
| RRIRARPPRLPRPRPRPPNVPRP | 0.109 |
| RRIRFRPPRLPRPRPRPVDKPRP | -0.022 |
| RRIRFRPPRLPRPRPRPATAPRP | 0.106 |
| RRIRTRPPRLPRPRPRPSVYPRP | -0.389 |
| RRIRIRPPRLPRPRPRPCGWPRP | 0.0831 |
| RRIRNRPPRLPRPRPRPMQPPRP | -0.000687 |
| RRIRVRPPRLPRPRPRPTMIPRP | 0.0351 |
| RRIRTRPPRLPRPRPRPPTRPRP | 0.663 |
| RRIRDRPPRLPRPRPRPFERPRP | -0.0141 |
| RRIRKRPPRLPRPRPRPPNTPRP | 0.408 |
| RRIRCRPPRLPRPRPRPGHTPRP | -0.128 |
| RRIRGRPPRLPRPRPRPGYAPRP | 0.222 |
| RRIRKRPPRLPRPRPRPTWNPRP | 0.197 |
| RRIRQRPPRLPRPRPRPPKCPRP | -0.37 |
| RRIRRRPPRLPRPRPRPIEIPRP | 0.0138 |
| RRIRPRPPRLPRPRPRPMTPPRP | 0.165 |
| RRIRMRPPRLPRPRPRPYWQPRP | -0.312 |

| Sequence | shrunken log2 fold change |
| --- | --- |
| RRIRARPPRLPRPRPRPAHVPRP | 0.0804 |
| RRIRCRPPRLPRPRPRPRQVPRP | 0.184 |
| RRIRIRPPRLPRPRPRPGVEPRP | -0.0594 |
| RRIRCRPPRLPRPRPRPYPMPRP | -0.424 |
| RRIRKRPPRLPRPRPRPDEPPRP | 2.05 |
| RRIRPRPPRLPRPRPRPQIPPRP | -0.0392 |
| RRIRERPPRLPRPRPRPHMVPRP | -0.174 |
| RRIRHRPPRLPRPRPRPPNTPRP | -0.0573 |
| RRIRMRPPRLPRPRPRPYVFPRP | -0.368 |
| RRIRGRPPRLPRPRPRPGEQPRP | 1.23 |
| RRIRARPPRLPRPRPRPSKIPRP | -0.265 |
| RRIRSRPPRLPRPRPRPYEPPRP | -0.619 |
| RRIRVRPPRLPRPRPRPKRIPRP | -0.114 |
| RRIRTRPPRLPRPRPRPQYIPRP | -0.331 |
| RRIRQRPPRLPRPRPRPIHTPRP | 0.0773 |
| RRIRSRPPRLPRPRPRPQWVPRP | 0.0964 |
| RRIRFRPPRLPRPRPRPTDVPRP | 0.0385 |
| RRIRNRPPRLPRPRPRPNKDPRP | -0.0478 |
| RRIRYRPPRLPRPRPRPEMWPRP | 0.0929 |
| RRIRDRPPRLPRPRPRPKDMPRP | 0.0342 |
| RRIRNRPPRLPRPRPRPRQYPRP | 0.0612 |
| RRIRRRPPRLPRPRPRPHYAPRP | 0.148 |
| RRIRERPPRLPRPRPRPAWMPRP | 0.501 |
| RRIRQRPPRLPRPRPRPCCGPRP | 0.0293 |
| RRIRHRPPRLPRPRPRPHVVPRP | -0.0954 |

| Sequence | shrunken log2 fold change |
| --- | --- |
| RRIRFRPPRLPRPRPRPFVRPRP | -0.0733 |
| RRIRTRPPRLPRPRPRPGQAPRP | -0.228 |
| RRIRERPPRLPRPRPRPQGHPRP | -0.0972 |
| RRIRVRPPRLPRPRPRPHKLPRP | -0.317 |
| RRIRWRPPRLPRPRPRPCVAPRP | 0.321 |
| RRIRWRPPRLPRPRPRPIHCPRP | 0.0948 |
| RRIRDRPPRLPRPRPRPTPAPRP | 0.551 |
| RRIRLRPPRLPRPRPRPQAQPRP | 0.0698 |
| RRIRLRPPRLPRPRPRPQNMPRP | -0.232 |
| RRIRPRPPRLPRPRPRPAMVPRP | 0.844 |
| RRIRDRPPRLPRPRPRPMSQPRP | -0.236 |
| RRIRPRPPRLPRPRPRPVMFPRP | 0.885 |
| RRIRNRPPRLPRPRPRPESTPRP | -0.0329 |
| RRIRFRPPRLPRPRPRPVFFPRP | 0.00921 |
| RRIRLRPPRLPRPRPRPIPRPRP | 0.0727 |
| RRIRMRPPRLPRPRPRPFFKPRP | -0.116 |
| RRIRKRPPRLPRPRPRPVFYPRP | -0.0751 |
| RRIRTRPPRLPRPRPRPSLMPRP | 0.0356 |
| RRIRWRPPRLPRPRPRPRFFPRP | 0.326 |
| RRIRWRPPRLPRPRPRPCDYPRP | -0.0182 |
| RRIRSRPPRLPRPRPRPKTGPRP | -0.071 |
| RRIRFRPPRLPRPRPRPLCTPRP | -0.137 |
| RRIRLRPPRLPRPRPRPCEIPRP | 0.0237 |
| RRIRCRPPRLPRPRPRPEQAPRP | 0.219 |
| RRIRYRPPRLPRPRPRPCTSPRP | -0.679 |

| Sequence | shrunken log2 fold change |
| --- | --- |
| RRIRERPPRLPRPRPRPACKPRP | 0.104 |
| RRIRARPPRLPRPRPRPHQNPRP | 0.409 |
| RRIRDRPPRLPRPRPRPNNTPRP | -0.747 |
| RRIRNRPPRLPRPRPRPLNSPRP | -0.162 |
| RRIRYRPPRLPRPRPRPLAHPRP | -0.15 |
| RRIRARPPRLPRPRPRPTMEPRP | 0.564 |
| RRIRYRPPRLPRPRPRPATQPRP | -0.163 |
| RRIRYRPPRLPRPRPRPNCEPRP | -0.144 |
| RRIRDRPPRLPRPRPRPRAMPRP | -0.0837 |
| RRIRQRPPRLPRPRPRPIIYPRP | -0.858 |
| RRIRVRPPRLPRPRPRPIWFPRP | -0.0241 |
| RRIRRRPPRLPRPRPRPQFLPRP | -0.0792 |
| RRIRQRPPRLPRPRPRPLAYPRP | -0.0738 |
| RRIRQRPPRLPRPRPRPKINPRP | -0.354 |
| RRIRRRPPRLPRPRPRPVLYPRP | -0.142 |
| RRIRERPPRLPRPRPRPCARPRP | 0.0326 |
| RRIRERPPRLPRPRPRPLGPPRP | 0.099 |
| RRIRSRPPRLPRPRPRPFNNPRP | -0.458 |
| RRIRSRPPRLPRPRPRPWDAPRP | 0.069 |
| RRIRNRPPRLPRPRPRPRHAPRP | 0.0219 |
| RRIRHRPPRLPRPRPRPTCTPRP | 0.141 |
| RRIRPRPPRLPRPRPRPWRMPRP | 0.217 |
| RRIRKRPPRLPRPRPRPQTRPRP | 0.358 |
| RRIRHRPPRLPRPRPRPDDYPRP | -0.00759 |
| RRIRYRPPRLPRPRPRPFMGPRP | -0.316 |

| Sequence | shrunken log2 fold change |
| --- | --- |
| RRIRTRPPRLPRPRPRPYCYPRP | -0.104 |
| RRIRQRPPRLPRPRPRPHMCPRP | -0.0238 |
| RRIRTRPPRLPRPRPRPIQAPRP | 0.232 |
| RRIRIRPPRLPRPRPRPNAIPRP | -0.204 |
| RRIRNRPPRLPRPRPRPSLGPRP | 0.0885 |
| RRIRDRPPRLPRPRPRPNCLPRP | 0.0835 |
| RRIRPRPPRLPRPRPRPEMTPRP | -0.0182 |
| RRIRKRPPRLPRPRPRPIMCPRP | -0.0176 |
| RRIRGRPPRLPRPRPRPWERPRP | 0.0531 |
| RRIRSRPPRLPRPRPRPISVPRP | -0.151 |
| RRIRVRPPRLPRPRPRPAEFPRP | 0.151 |
| RRIRARPPRLPRPRPRPETDPRP | 0.764 |
| RRIRFRPPRLPRPRPRPTLFPRP | 0.243 |
| RRIRWRPPRLPRPRPRPWGDPRP | 0.0345 |
| RRIRDRPPRLPRPRPRPYSPPRP | 0.0205 |
| RRIRKRPPRLPRPRPRPMEHPRP | -0.0568 |
| RRIRERPPRLPRPRPRPYPKPRP | -0.405 |
| RRIRPRPPRLPRPRPRPAGEPRP | 0.418 |
| RRIRPRPPRLPRPRPRPTRIPRP | 0.105 |
| RRIRFRPPRLPRPRPRPEKPPRP | -0.0143 |
| RRIRYRPPRLPRPRPRPDTMPRP | -0.0156 |
| RRIRVRPPRLPRPRPRPWLNPRP | -0.106 |
| RRIRWRPPRLPRPRPRPMFHPRP | -0.271 |
| RRIRCRPPRLPRPRPRPKMCPRP | -0.164 |
| RRIRMRPPRLPRPRPRPETTPRP | 3.65 |

Source: the supplement of paper PMC9112550, “Optimization of the antimicrobial peptide Bac7 by deep mutational scanning” (BMC Biology, 2022)
